Test results published in US20090169546A1 (published 2009).
No end group written: not given here.

T1: native nuclear HMG1 prepared from 293H cells by freeze thaw (human, UniProt P09429 1-215)
T1 sequence (looked up): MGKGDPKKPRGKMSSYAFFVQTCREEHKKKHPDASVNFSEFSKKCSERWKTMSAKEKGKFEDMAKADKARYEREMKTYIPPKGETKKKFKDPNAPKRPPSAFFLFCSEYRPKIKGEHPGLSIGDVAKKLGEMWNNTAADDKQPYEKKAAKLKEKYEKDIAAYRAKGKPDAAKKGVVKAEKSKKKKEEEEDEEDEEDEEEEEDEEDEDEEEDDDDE

T2: recombinant HMG1 produced in E. coli as calmodulin binding protein (CBP) fusion (human)
T2 chain: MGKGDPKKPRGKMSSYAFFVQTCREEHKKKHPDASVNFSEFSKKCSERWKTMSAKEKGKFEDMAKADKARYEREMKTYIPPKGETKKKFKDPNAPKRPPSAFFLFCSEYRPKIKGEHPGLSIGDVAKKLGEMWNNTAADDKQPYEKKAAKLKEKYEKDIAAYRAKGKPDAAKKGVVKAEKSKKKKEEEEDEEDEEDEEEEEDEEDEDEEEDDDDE

T3: HMGB1 B-box peptide 91-108 (human, also: biotinylated, site not given here)
T3 peptide: DPNAPKRPPSAFFLFCSE

T4: nuclear HMGB1 in HUVEC cells (UniProt P09429 1-215)
T4 construct: HUVEC are human cells; also called nuclear HMGB1 (immunostaining)
T4 sequence (looked up): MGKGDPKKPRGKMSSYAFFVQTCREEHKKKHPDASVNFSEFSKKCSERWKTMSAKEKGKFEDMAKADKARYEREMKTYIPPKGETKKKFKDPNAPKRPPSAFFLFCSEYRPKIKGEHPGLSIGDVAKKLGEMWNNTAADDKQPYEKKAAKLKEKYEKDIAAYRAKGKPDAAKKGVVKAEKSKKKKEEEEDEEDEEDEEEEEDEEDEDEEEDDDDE

T5: released HMG1 from the conditioned media of necrotic 293H cells (human, UniProt P09429 1-215)
T5 construct: also called necrotic HMG1
T5 sequence (looked up): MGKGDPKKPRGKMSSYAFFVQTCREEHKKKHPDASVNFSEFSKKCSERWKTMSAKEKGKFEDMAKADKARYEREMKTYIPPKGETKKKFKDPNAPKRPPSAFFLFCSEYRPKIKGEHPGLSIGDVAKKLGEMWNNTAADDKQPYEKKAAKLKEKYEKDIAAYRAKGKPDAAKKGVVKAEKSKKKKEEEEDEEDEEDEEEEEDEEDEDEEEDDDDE

T6: activated HMG1 prepared from LPS stimulated THP-1 cells (human, UniProt P09429 1-215)
T6 construct: also called Native HMGB
T6 sequence (looked up): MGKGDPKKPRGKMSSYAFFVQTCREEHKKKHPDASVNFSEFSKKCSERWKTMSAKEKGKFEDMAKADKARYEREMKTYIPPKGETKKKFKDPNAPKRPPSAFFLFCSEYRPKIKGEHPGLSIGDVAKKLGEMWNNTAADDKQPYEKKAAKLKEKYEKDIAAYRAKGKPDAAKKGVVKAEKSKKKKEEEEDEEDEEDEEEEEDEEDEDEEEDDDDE

T7: actively secreted HMGB1 of LPS activated HUVEC cells (UniProt P09429 1-215)
T7 sequence (looked up): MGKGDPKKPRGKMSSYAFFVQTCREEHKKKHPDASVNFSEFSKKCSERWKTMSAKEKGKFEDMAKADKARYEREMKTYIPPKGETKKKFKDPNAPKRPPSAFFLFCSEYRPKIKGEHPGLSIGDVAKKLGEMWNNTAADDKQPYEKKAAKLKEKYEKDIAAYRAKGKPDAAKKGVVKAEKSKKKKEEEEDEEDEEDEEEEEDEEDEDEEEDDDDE

B1: anti-HMG1 antibody S2 (antibody, V domains shown)
VH: EVQLLESGGGLVQPGGSLRLSCAASGFTFSGYMMVWVRQAPGKGLEWVSRISPSGGQTGYADSVKGRFTISRDNSKNTLYLQMNSLRAEDTAVYYCAREEGGSYGAFDIWGQGTMVTVSS
VL: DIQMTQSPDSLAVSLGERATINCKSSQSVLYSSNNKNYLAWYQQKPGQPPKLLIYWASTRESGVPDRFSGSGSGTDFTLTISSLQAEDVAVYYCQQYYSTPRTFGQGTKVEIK
notes: also called ATCC PTA-6142
B2: anti-HMG1 antibody S10 (antibody, V domains shown)
VH: EVQLLESGGGLVQPGGSLRLSCAASGFTFSWYDMWWVRQAPGKGLEWVSWIVPSGGITAYADSVKGRFTISRDNSKNTLYLQMNSLRAEDTATYYCARGNYGPSPFDYWGQGTLVTVSS
VL: DIQMTQSPGTLSLSPGERATLSCRATQSVRKNFLAWYQQKPGQAPRLLIYDASSRATGIPDRFSGSGSGTDFTLTISRLEPEDFAVYYCQQYGNSPIIFGQGTRLEIK
B3: anti-HMG1 antibody G4 (antibody, V domains shown)
VH: EVQLLESGGGLVQPGGSLRLSCAASGFTFSWYDMTWVRQAPGKGLEWVSSISPSGGYTKYADSVKGRFTISRDNSKNTLYLQMNSLRAEDTAVYYCTTEFYDYLDVWGKGTTVTVSS
VL: DIQMTQSPGTLSLSPGEGATLSCRASQSVSSTYLAWYQQKPGQAPRLLIYEASKRATGTPARFSGSGSGTDFTLSISSLEPEDFAVYYCQHRHNWPPQWTFGQGTKVEVK
notes: also called ATCC PTA-6258

Experiments:
[1] = target: T1, native nuclear HMG1 prepared from 293H …; assay: HMG1 capture (sandwich) ELISA, FIG. 4B
Description: (§1) Sandwich ELISA (soluble HMG1): Immunoplates (EIA/RIA plate, High binding, Costar) were coated with anti human IgG Fc at 10 μg/ml in PBS (pH 7.2) and incubated at 4° C. overnight. The coating reagent was removed and the plates were rinsed briefly with PBS. The plates were then blocked with 4% milk for 1 hour at 37° C. and rinsed with PBS. The anti-HMG1 antibodies were diluted in 4% milk. For serial dilutions, the antibodies were used at a starting concentration of 20 μg/ml. The diluted anti-HMG1 antibodies were then added into plate and incubated for 1 hr at 37° C. The plate was then washed 10 times with PBST (PBS/0.1% tween 20) and incubate with antigen (HMGB1, 2 μg/ml; or 0.7 μg/ml for native HMGB1) in 4% milk and incubated at 37° C. for 1 h. The plate was then wash 10 times and incubated with mouse anti-HMGB1, 1 μg/ml in 4% milk at 37° C. for 1 h. The plate was washed 10 times and incubated with anti-mouse IgG-HRP at 1:1000 at 37° C. for 1 h. The plate was then washed and developed. HRP activity was detected with Sureblue HRP substrate (KPL). Plates were read at 450 nm using a Kinetic Microplate Reader (Molecular Devices).

[2] = target: T2, recombinant HMG1 produced in E. coli as …; assay: ELISA; HMGB1 preincubated with antibody, then added to immobilised RAGE-Fc
Description: HMG1 binding to RAGE-Ig by ELISA: 50 μl/well of RAGE-Fc fusion protein at 5 μg/ml in PBS was added to each well of an ELISA plate and incubated overnight at 4° C. The plate was then blocked with 200 μl of 5% milk at 37° C. for 1 hr and washed 3× with PBS/Tween. 50 μl/well of diluted HMGB1 solution. For dose curves, HMGB1 concentrations started at 4 ug/ml in PBS. For antibody blocking the HMGB1 was preincubated in another plate with human anti-HMG1 antibodies or buffer, then transferred to the RAGE-coated plate. The plates were then incubated at room temperature for 2 hours and washed 3×. To detect any HMG1 bound to the immobilized RAGE-Fc a mixture of biotinylated mouse anti-HMG1 mAbs (10D4, 4H11, 3E10 and 5C12) each at 1 ug/ml, total Ab: 4 ug/ml, were added to each well and the plate was incubated for 1 hour at room temperature. The plate was then washed and Strepavidin-HPR was added to each well and incubated 15 min. The plate was then washed 3× and blotted dry. 100 μl of TMB developing agent was added and the plate read at 650 nm. Values were calculated as percent of inhibition with HMG1 alone equal to 0% inhibition. The data in FIG. 9 and summarized in Table 1 represent the average of two separate experiments.

[3] = target: T2, recombinant HMG1 produced in E. coli as …; assay: cell-based or functional assay
[4] = target: T2, recombinant HMG1 produced in E. coli as …; assay: BIAcore 3000; mAb amine-coupled to CM5, HMG1 injected in two-fold dilutions; steady-state model
Description: HMG1 Binding Affinity via BIAcore Analysis: All experiments were performed on a BIAcore 3000 instrument (BIAcore, Inc., Piscataway, N.J.). Briefly, each mAb was immobilized to a CM5 sensor chip using a standard amine coupling chemistry. Separately a reference (control) flow cell was also prepared. Two-fold, serial dilutions of HMG1 in instrument buffer were sequentially injected at a slow flow rate over the individual mAb and reference flow-cell surfaces. Following the binding and dissociation of HMG1, the mAbs surfaces were regenerated with a brief pulse of 1M NaCl-50 mM NaOH. At the end of each experiment, the binding curves were evaluated using a steady-state model available through the BIAevaluation software supplied by BIAcore, Inc. (Piscataway, N.J.).

[5] = target: T3, HMGB1 B-box peptide 91-108; assay: ELISA on biotinylated peptides captured on avidin
Description: The plate was then blocked with 4% milk powder dissolved in PBS at 37° C. for 1 hour. The blocking solution was removed and replaced with human anti-HMG1 antibodies at various concentrations (see FIGS. 5A-B). […] HRP activity was detected with Sureblue HRP substrate (KPL). Plates were read at 450 nm using a Kinetic Microplate Reader (Molecular Devices). […] After washing and blocking with 1% BSA in PBS, the biotinylated peptides were individually added into the avidin coated wells and incubated for 30 min at room temperature. The serial diluted antibody G4, S16 and S6 at the initial concentration at 10 μg/ml were then transferred into the wells followed by adding mouse anti human IgG-HRP conjugate (Pierce). Detection was accomplished by adding 50 μl of tetramethylbenzidine (TMB) substrate (KPL) and the absorbance was read at 450 nm.

[6] = target: T4, nuclear HMGB1 in HUVEC cells; assay: immunofluorescence on HUVEC, antibody 1 ug/ml
Description: (§2) Immunofluorescence: Intracytoplasmic (ic) HMGB1 was quantitated by direct immunofluorescence. HUVEC were harvested by trypsin-EDTA treatment and seeded on a glass coverslip. Once the cells are settled, they were stimulated with 0.2 μg/ml of LPS (Sigma) for 4 hours. The cells were fixed in 2% paraformaldehyde for 15 min and then permeabilized in 0.2% Triton X-100 for 2 min. Fixed and permeabilized cells were incubated with anti-HMGB1 antibodies at 1 μg/ml for 1 hour at room temperature. Cells were then washed to remove excess or nonspecifically bound primary antibody followed by incubation with anti human IgG conjugated with fluorescence (Pierce). The sections were mounted with fluoromount (Southern Associates, Birmingham, Ala.), and the images were processed with a Nikon microscope (Japan) and a SPOT imaging system (Diagnostic Instrument).
(§3) As noted above, the different antibodies bind differently to HMGB1 isolated or prepared from different sources. To expand this observation the anti-HMBG1 antibodies G4 and S6 were used for immunostaining of untreated or LPS activated THp-1 (not shown) and HUVEC cells (FIG. 4F). […] As nuclear HMHB1 binds to DNA and histones, which might be disrupted after cell freeze and thaw we immunoprecipitate freeze thaw preparation and probed for histones by Western Blot. No DNA or histones could be detected from this preparation (data not shown). […]

[7] = target: T1, native nuclear HMG1 prepared from 293H …; assay: sandwich ELISA, relative binding
Description: as §1

[8] = target: T5, released HMG1 from the conditioned …; assay: sandwich ELISA, relative binding
Description: as §1

[9] = target: T6, activated HMG1 prepared from LPS …; assay: sandwich ELISA, relative binding
Description: as §1

[10] = target: T7, actively secreted HMGB1 of LPS …; assay: immunofluorescence on LPS treated HUVEC, antibody 1 ug/ml
Description: as §2, §3

Row | Binder | binding result [1] | percent inhibition of HMG1 binding to RAGE [2] | IC50, inhibition of rHMG1 stimulated IL-1β release from human PBMCs [3] | IC50, inhibition of rHMG1 stimulated IL-6 release from human PBMCs [3] | IC50, inhibition of rHMG1 stimulated TNF-α release from human PBMCs [3] | Kd [4] | IC50, inhibition of rHMG1 stimulated IL-12 release from human PBMCs [3] | binding result [5] | binding result [6] | binding result [7] | binding result [8] | binding result [9] | binding result [10]
1 | B1 | binds | ≥ 35% | 0.22 µg/mL | 0.163 nM | 0.0642 µg/mL | 36 nM |  |  |  |  |  |  | 
2 | B2 | binds | ≥ 35% | 2.59 µg/mL | 0.324 nM | 0.875 µg/mL | 54 nM | 1.13 µg/mL |  |  |  |  |  | 
3 | B3 |  |  | 5.01 µg/mL | 0.9 nM | 5.51 µg/mL | 30 nM | 0.715 µg/mL | binds | binds | binds | binds | binds | binds
